The values that follow come from patent US20220273711A1 (published 2022).

B1: Her2_Cage_L209A (Tuned Cage targeted to Her2 by DARPin (L209A)) (designed binder)
chain: MGSHHHHHHGSGSENLYFQGSGGSDLGKKLLEAARAGQDDEVRILMANGADVNAKDEYGLTPLYLATAHGHLEIVEVLLKNGADVNAVDAIGFTPLHLAAFIGHLEIAEVLLKHGADVNAQDKFGKTAFDISIGNGNEDLAEILQKLNSGSGSGKPGQASGSELARKLLEASTKLQRLNIRLAEALLEAIARLQELNLELVYLAVELTDPKRIRDEIKEVKDKSKEIIRRAEKEIDDAAKESEKILEEAREAISGSGSELAKLLLKAIAETQDLNLRAAKAFLEAAAKLQELNIRAVELLVKLTDPATIREALEHAKRRSKEIIDEAERAIRAAKRESERIIEEARRLIEKGSGSGSELARELLRAHAQAQRLNLELLRELLRALAQLQELNLDLLRLASELTDEIWIAQELRRIGDEFNAYYADAERLIREAAAASEKISREAERLIR
B2: Her2_Cage (Original Cage targeted to Her2 by DARPin) (designed binder)
chain: B1 chain with A370L
B3: Her2_Cage_I287A (Tuned Cage targeted to Her2 by DARPin (I287A)) (designed binder)
chain: B1 chain with A370L, I448A
B4: Her2_Cage_I269S (Tuned Cage targeted to Her2 by DARPin (I269S)) (designed binder)
chain: B1 chain with A370L, I430S
B5: Her2_Cage_I287S (Tuned Cage targeted to Her2 by DARPin (I287S)) (designed binder)
chain: B1 chain with A370L, I448S

Numbering of substitutions follows the chain as printed. Names may count otherwise.

The target of the assay is biotinylated Bcl2 (wild-type non-optimized Bcl2 with C-terminal Avi and 6xHis-tags) (UniProt P10415 1-207, enzymatically biotinylated using BirA (Avi tag)). Put plainly: BLI; midpoint; Cage plus Key_EGFR, co-localization-independent. (In general: BLI is a label-free optical method that tracks binding on a fibre tip over time.)
Chain of biotinylated Bcl2 (wild-type non-optimized Bcl2 with C-terminal Avi and 6xHis-tags) (P10415 1-207): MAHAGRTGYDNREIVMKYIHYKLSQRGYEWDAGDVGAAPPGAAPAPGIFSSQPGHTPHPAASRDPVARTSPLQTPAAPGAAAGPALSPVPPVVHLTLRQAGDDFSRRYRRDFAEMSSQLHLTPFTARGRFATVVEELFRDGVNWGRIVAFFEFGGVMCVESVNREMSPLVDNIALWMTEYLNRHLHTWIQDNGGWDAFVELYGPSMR
For the molecule B1, the EC50 (usually the concentration that produces a half-maximal response) was found to be 23 nM.
For B2 the value was 63 nM; for B3, 12 nM.
For B4 the value was 8.4 nM.
For B5 the value was 8.7 nM.
